In publication PMC8028696 (Journal of Molecular Biology, 2021):

Assays:
[1] = target: T1, Trimeric SARS-CoV-2 S-protein (SARS-CoV-2 (P0DTC2 reference)); strain …, UniProt P0DTC2, biotin (site-specific, BirA, on the AviTag)); test: BLI
[2] = target: T1, Trimeric SARS-CoV-2 S-protein; test: ELISA

B1: IgG 15046 (antibody, V domains shown)
VH: EVQLVESGGGLVQPGGSLRLSCAASGFDFGSYAMHWVRQAPGKGLEWVAGIYASGGYTDYADSVKGRFTISADTSKNTAYLQMNSLRAEDTAVYYCARGWSYYWGFDYWGQGTLVTVSS
VL: DIQMTQSPSSLSASVGDRVTITCRASQSVSSAVAWYQQKPGKAPKLLIYSASSLYSGVPSRFSGSRSGTDFTLTISSLQPEDFATYYCQQYDYGLFTFGQGTKVEIK
For B1, the Kd [1] was 2.3 ± 0.6 nM and the EC50 [2] was 1.3 ± 0.3 nM.

B2: IgG 15036 (antibody, V domains shown)
VH: EVQLVESGGGLVQPGGSLRLSCAASGFDFTAYDIHWVRQAPGKGLEWVAGISASGGYTAYADSVKGRFTISADTSKNTAYLQMNSLRAEDTAVYYCARDGFHSYALDYWGQGTLVTVSS
VL: DIQMTQSPSSLSASVGDRVTITCRASQSVSSAVAWYQQKPGKAPKLLIYSASSLYSGVPSRFSGSRSGTDFTLTISSLQPEDFATYYCQQWYSLFTFGQGTKVEIK
B2 was tested, and the Kd [1] was 0.1 ± 0.1 nM and the EC50 [2] was 0.5 ± 0.1 nM.
